From US20250164508A1, “G-PROTEIN COUPLED RECEPTOR ASSAY” (The Regents of the University of Michigan, priority 2022, published 2025) come the findings set out here.

Assay [1] deals with β2-adrenergic Receptor (β2AR) (Homo sapiens, UniProt P07550). Nature of the assay: β2AR IGNiTR assay (β2AR-LgBiT cell lysate with SmBiT conformation-specific binder). To be noted: SmBiT-Gs peptidomimetic fusion peptides with β2AR-LgBiT.
The target in assay [2] is Melanocortin-4 Receptor (MC4R) (Homo sapiens, UniProt P32245). Nature of the assay: MC4R IGNiTR assay. Particulars: Gs fusion peptide 2 μM; drug 10 μM.
Assay [3] concerns the target MOR-SmBit (Mu-opioid receptor with SmBit attached to the C-terminus) (UniProt P35372). The experiment in a line: in-solution split NANOLUC complementation, co-expressed components, with and without loperamide.
The target is the same in assay [4]. Nature of the assay: in-solution split NANOLUC complementation, separately expressed components, with and without loperamide.
Assay [5] addresses μ-opioid receptor (μ-OR) (Homo sapiens, UniProt P35372). The experiment in a line: μ-OR IGNiTR assay with Gi fusion peptide.
The target of assay [6] is T1, MOR (Homo sapiens, UniProt P35372).
T1 construct: made in house; host or cells: HEK293 adhesion cells (general method)
The assay is classed as biochemical. Particulars: peptidomimetic 35 uM and 28 uM.

Assay [7] deals with B2AR-SmBit (beta-2-adrenergic receptor fused to the SmBit fragment of split NANOLUC) (UniProt P07550). The experiment in a line: in-solution split NANOLUC complementation, detergent-extracted B2AR mixed with nanobody lysate, with and without isoproterenol.

Square brackets hold non-standard residues; d marks the D form. Ends that are not written are not given here. Cha = N[C@@H](CC1CCCCC1)C(=O)O

Sequence of μ-opioid receptor (μ-OR) (P35372 whole entry, the tested form may be a part): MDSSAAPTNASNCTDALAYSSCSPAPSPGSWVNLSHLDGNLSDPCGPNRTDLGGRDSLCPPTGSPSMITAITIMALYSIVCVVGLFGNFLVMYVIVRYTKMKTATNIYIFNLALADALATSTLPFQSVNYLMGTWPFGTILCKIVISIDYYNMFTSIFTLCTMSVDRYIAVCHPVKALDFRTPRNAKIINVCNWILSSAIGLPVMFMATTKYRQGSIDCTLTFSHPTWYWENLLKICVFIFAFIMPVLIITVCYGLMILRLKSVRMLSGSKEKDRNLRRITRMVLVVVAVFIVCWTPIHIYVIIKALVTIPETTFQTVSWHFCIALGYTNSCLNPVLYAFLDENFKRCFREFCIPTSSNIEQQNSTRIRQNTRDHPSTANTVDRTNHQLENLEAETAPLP
Sequence of MOR-SmBit (Mu-opioid receptor with SmBit attached to the C-terminus) (P35372 1-400, tags or fused parts left off): as the sequence (P35372 whole entry, the tested form may be a part) above
Sequence of Melanocortin-4 Receptor (MC4R) (P32245 whole entry, species assumed, the tested form may be a part): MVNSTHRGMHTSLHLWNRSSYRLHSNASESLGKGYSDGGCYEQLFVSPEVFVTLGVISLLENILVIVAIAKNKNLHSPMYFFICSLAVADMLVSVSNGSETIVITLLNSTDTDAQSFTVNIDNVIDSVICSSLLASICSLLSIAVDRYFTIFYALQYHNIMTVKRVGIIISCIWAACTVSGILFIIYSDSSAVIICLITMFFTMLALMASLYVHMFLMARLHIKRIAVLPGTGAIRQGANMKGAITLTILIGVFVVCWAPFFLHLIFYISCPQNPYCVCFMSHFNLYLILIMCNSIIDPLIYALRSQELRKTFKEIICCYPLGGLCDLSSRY
T1 sequence (P35372 whole entry): as the sequence (P35372 whole entry, the tested form may be a part) above

On to “VTGYRLFEEILGSFNDCRDIIQRMHLRQYE-{Cha}-L (VTGYRLFEEILGSFNDCRDIIQRMHLRQYE[Cha]L) [Gs fusion peptide]”, for which the results for the “agonist-dependent DDR” value in assay [1] and in assay [1] (listed as peptide 2) were “significant DDR” and “showed agonist-dependent DDR”, respectively. The DDR significance result in assay [2] was “significant DDRs”.

As to “VTGYRLFEEILGSKKKFN-C-SRD-C-IQRMHLRQYE-{Cha}-L [peptide 1]”, the “agonist-dependent DDR” value in assay [1] is on record as “did not demonstrate agonist-dependence”.

On to “Nb39-LgBit (Nb39 attached to LgBit on the C-terminus) (VHH)”, for which the fold signal change between (+Lop) and (-Lop) in assay [3] was determined as 3.8 fold; in assay [4] it was 3.2 fold.

As to “VTGYRLFEEILGSKKKFDAVTDIIIKNNLKDCG[Cha]F [Gi fusion peptide]”, the DDR in assay [5] (2 μM peptide, 0.5× μ-OR-LgBiT lysate, around 10 minutes) is about 4. For the same molecule, in assay [5] (Gi fusion peptide with μ-OR), the DDR significance result is “significant DDR”. The “binding to the MOR protein” value in assay [6] is on record as “successful binding”.

B1: Nb80-LgBit (Nanobody 80 fused to LgBit) (VHH, from another filing)
VHH: QVQLQESGGGLVQAGGSLRLSCAASGSIFSINTMGWYRQAPGKQRELVAAIHSGGSTNYANSVKGRFTISRDNAANTVYLQMNSLKPEDTAVYYCNVKDYGAVLYEYDYWGQGTQVTVSS
B1 registered a fold signal change between (+Iso) and (-Iso) in assay [7] of 1.9 fold.
